Molecular target: NKG2D on human γδ T cells (human) (UniProt P26718)
Assay: cell-based or functional assay

Sequence of NKG2D on human γδ T cells (human) (P26718 whole entry, stated change not applied): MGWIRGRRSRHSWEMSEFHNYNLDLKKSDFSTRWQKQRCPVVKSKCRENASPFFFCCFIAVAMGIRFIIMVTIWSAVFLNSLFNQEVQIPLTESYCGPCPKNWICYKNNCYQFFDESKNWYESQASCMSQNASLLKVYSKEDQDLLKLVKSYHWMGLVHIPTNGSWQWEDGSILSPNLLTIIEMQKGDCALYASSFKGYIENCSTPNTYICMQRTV

frequency of Vγ9+ T cells expressing CD107a (plate-bound, together with BTN2A1/3A1-Fc-CD19scFv) [% γδ T cells]	Substance
18	MICA-Fc fusion protein (from UniProt Q29983 24-307)
18	MICB-Fc fusion protein (from UniProt Q29980 23-298)
30	anti-NKG2D antibody (Clone #149810, R&D Systems)
